Source: the supplement of paper PMC10724198
± gives the standard deviation of the averaged measurements.

Key:
Saccharomyces cerevisiae [1] = assay: protein stability index of tFT-peptide fusion (C-terminal peptide) (PSI (0-1 scale)); higher = more stable (slower turnover)
Method: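 MPS profiling in S. cerevisiae of the tFT-X12 degron library: putative degron peptides plus stable controls, 12 aa, fused to the C-terminus of a sfGFP-mCherry timer. Cells are FACS-sorted into 8 mCherry/sfGFP bins and deep-sequenced. PSI runs from 0 (unstable) to 1 (stable). Backgrounds are wild type, das1Δ and doa10Δ at 30 °C, and wild type, das1Δ, cdc34-1 and cdc53-1 at 37 °C; 2-3 technical replicates each.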

Saccharomyces cerevisiae [2] = assay: as above; conditions: genetic background: wild type; temperature: 30 C
[3] = genetic background: cdc34-1, temperature: 37 C
[4] = genetic background: cdc53-1, temperature: 37 C
[5] = genetic background: das1 deletion, temperature: 30 C
[6] = genetic background: das1 deletion, temperature: 37 C
[7] = genetic background: doa10 deletion, temperature: 30 C
[8] = genetic background: wild type, temperature: 30 C
[9] = genetic background: wild type, temperature: 37 C
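Note: PSI is a weighted mean of sequencing reads over stability bins, variants kept only with over 10 reads, mCherry proximal and sfGFP distal, peptide attached via GGGS linker.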

| Sequence | protein stability index (Saccharomyces cerevisiae [1]; [3]) | protein stability index (Saccharomyces cerevisiae [1]; [4]) | protein stability index (Saccharomyces cerevisiae [1]; [5]) | protein stability index (Saccharomyces cerevisiae [1]; [6]) | protein stability index (Saccharomyces cerevisiae [1]; [7]) | protein stability index (Saccharomyces cerevisiae [1]; [8]) | protein stability index (Saccharomyces cerevisiae [1]; [9]) | protein stability index (Saccharomyces cerevisiae [2]) |
| --- | --- | --- | --- | --- | --- | --- | --- | --- |
| ARRFLVRRFILF | 0.545 ± 0.019 | 0.65822 ± 0.00018 | 0.586 ± 0.0066 | 0.683 ± 0.026 | 0.187 ± 0.018 | 0.189 ± 0.021 | 0.326 ± 0.033 | 0.282 ± 0.0087 |
| LLVCLGYFLFLG | 0.37 ± 0.025 | 0.372 ± 0.031 | 0.313 ± 0.024 | 0.484 ± 0.055 | 0.338 ± 0.0061 | 0.288 ± 0.051 | 0.453 ± 0.022 | 0.403 ± 0.0091 |
| AGVRCPLFWLVC | 0.461 ± 0.049 | 0.622 ± 0.032 | 0.498 ± 0.033 | 0.632 ± 0.013 | 0.131 ± 0.012 | 0.138 ± 0.0075 | 0.148 ± 0.01 | 0.156 ± 0.0027 |
| VQVLVAIMDGRM | 0.346 ± 0.023 | 0.4143 ± 0.0016 | 0.371 ± 0.031 | 0.387 ± 0.004 | 0.38 ± 0.039 | 0.37 ± 0.019 | 0.39 ± 0.017 | 0.354 ± 0.011 |
| CTLVVGLFVLVV | 0.168 ± 0.02 | 0.315 ± 0.022 | 0.209 ± 0.034 | 0.375 ± 0.024 | 0.168 ± 0.0065 | 0.216 ± 0.028 | 0.322 ± 0.0064 | 0.362 ± 0.0094 |
| RKNSQKILKLSG | 0.6945 ± 0.0068 | 0.7724 ± 0.0073 | 0.64 ± 0.042 | 0.739 ± 0.024 | 0.256 ± 0.013 | 0.317 ± 0.019 | 0.576 ± 0.029 | 0.502 ± 0.15 |
| VVGLSLLFSGGV | 0.687 ± 0.011 | 0.755 ± 0.021 | 0.644 ± 0.015 | 0.7583 ± 0.0016 | 0.662 ± 0.025 | 0.6572 ± 0.0032 | 0.727 ± 0.0093 | 0.694 ± 0.021 |
| VMFCRFPLRFGC | 0.662 ± 0.031 | 0.726 ± 0.03 | 0.631 ± 0.0071 | 0.7445 ± 0.0057 | 0.3191 ± 0.0022 | 0.348 ± 0.023 | 0.561 ± 0.021 | 0.475 ± 0.026 |
| CALLLLSVRAGQ | 0.5373 ± 0.00093 | 0.57 ± 0.02 | 0.432 ± 0.04 | 0.5912 ± 0.0029 | 0.415 ± 0.032 | 0.433 ± 0.024 | 0.565 ± 0.02 | 0.474 ± 0.019 |
| ACFLFPSHLLIS | 0.584 ± 0.021 | 0.689 ± 0.0086 | 0.541 ± 0.02 | 0.699 ± 0.021 | 0.165 ± 0.023 | 0.181 ± 0.011 | 0.3022 ± 0.0017 | 0.305 ± 0.0099 |
| AFSISPFRLRMV | 0.642 ± 0.026 | 0.753 ± 0.025 | 0.649 ± 0.013 | 0.746 ± 0.03 | 0.249 ± 0.0032 | 0.293 ± 0.022 | 0.541 ± 0.0024 | 0.418 ± 0.017 |
| VAFILVVCKGIG | 0.187 ± 0.029 | 0.2776 ± 0.0022 | 0.175 ± 0.016 | 0.327 ± 0.0048 | 0.122 ± 0.015 | 0.152 ± 0.013 | 0.287 ± 0.0077 | 0.2024 ± 0.00042 |
| GDINRNTRYLEK | 0.6705 ± 0.0048 | 0.7508 ± 0.0049 | 0.648 ± 0.029 | 0.698 ± 0.0092 | 0.649 ± 0.0063 | 0.6339 ± 0.0032 | 0.702 ± 0.024 | 0.556 ± 0.18 |
| TLFSPPVLATPS | 0.624 ± 0.042 | 0.6754 ± 0.0047 | 0.528 ± 0.026 | 0.676 ± 0.0092 | 0.513 ± 0.021 | 0.54 ± 0.014 | 0.644 ± 0.0088 | 0.0225 ± 0.011 |
| LCFGMVELMWIY | 0.418 ± 0.057 | 0.52 ± 0.071 | 0.388 ± 0.046 | 0.521 ± 0.011 | 0.371 ± 0.047 | 0.377 ± 0.037 | 0.471 ± 0.018 | 0.458 ± 0.0053 |
| LINHSWLLLSVL | 0.368 ± 0.017 | 0.432 ± 0.036 | 0.363 ± 0.038 | 0.521 ± 0.026 | 0.14246 ± 3.7e-05 | 0.133 ± 0.018 | 0.1583 ± 0.00095 | 0.325 ± 0.035 |
| WFSVRQLVFVSG | 0.119 ± 0.011 | 0.146 ± 0.018 | 0.163 ± 0.028 | 0.236 ± 0.0094 | 0.124 ± 0.0015 | 0.163 ± 0.019 | 0.218 ± 0.0069 | 0.218 ± 0.014 |
| LLLVCYSTFIVA | 0.287 ± 0.057 | 0.359 ± 0.045 | 0.254 ± 0.04 | 0.3813 ± 0.0031 | 0.251 ± 0.011 | 0.28 ± 0.014 | 0.364 ± 0.0041 | 0.313 ± 0.026 |
| GRLDHWNKHKYI | 0.528 ± 0.031 | 0.687 ± 0.032 | 0.64 ± 0.0064 | 0.783 ± 0.024 | 0.104 ± 0.013 | 0.0786 ± 0.026 | 0.14 ± 0.032 | 0.184 ± 0.0029 |
| SPPSFPPLLLLS | 0.668 ± 0.043 | 0.7368 ± 0.00078 | 0.608 ± 0.015 | 0.7386 ± 0.0036 | 0.326 ± 0.028 | 0.362 ± 0.022 | 0.541 ± 0.028 | 0.48 ± 0.022 |
| KKKNIYKVMKLE | 0.65 ± 0.011 | 0.706 ± 0.011 | 0.646 ± 0.035 | 0.72636 ± 0.00051 | 0.146 ± 0.043 | 0.19 ± 0.041 | 0.307 ± 0.025 | 0.403 ± 0.055 |
| WDLYFSVVYRVV | 0.35 ± 0.04 | 0.484 ± 0.017 | 0.403 ± 0.015 | 0.491 ± 0.017 | 0.0435 ± 0.021 | 0.0544 ± 0.0073 | 0.093 ± 0.0024 | 0.114 ± 0.0017 |
| IYEAFLVFCLCG | 0.426 ± 0.016 | 0.454 ± 0.011 | 0.326 ± 0.028 | 0.543 ± 0.014 | 0.284 ± 0.016 | 0.287 ± 0.015 | 0.4385 ± 0.0019 | 0.365 ± 0.021 |
| IGMVSELLLFYP | 0.721 ± 0.047 | 0.7374 ± 0.0073 | 0.671 ± 0.022 | 0.7676 ± 0.0068 | 0.63 ± 0.0085 | 0.667 ± 0.045 | 0.73 ± 0.008 | 0.72 ± 0.017 |
| VFKLGWVLCVLL | 0.286 ± 0.027 | 0.386 ± 0.0098 | 0.286 ± 0.01 | 0.389 ± 0.011 | 0.152 ± 0.0011 | 0.165 ± 0.0049 | 0.3 ± 0.0072 | 0.208 ± 0.024 |
| PRLWLYCLIISL | 0.173 ± 0.032 | 0.214 ± 0.016 | 0.186 ± 0.039 | 0.335 ± 0.015 | 0.157 ± 0.011 | 0.14 ± 0.03 | 0.277 ± 0.022 | 0.2062 ± 0.00075 |
| FSGFPLTLSPPL | 0.717 ± 0.029 | 0.7715 ± 0.0044 | 0.67 ± 0.024 | 0.753 ± 0.013 | 0.685 ± 0.0098 | 0.679 ± 0.019 | 0.73 ± 0.018 | 0.7224 ± 0.0042 |
| FAFPTPPPLLFD | 0.68 ± 0.047 | 0.7511 ± 0.00095 | 0.693 ± 0.035 | 0.735 ± 0.0083 | 0.667 ± 0.0073 | 0.676 ± 0.0095 | 0.736 ± 0.013 | 0.751 ± 0.027 |
| SVKRVVPCLVSC | 0.442 ± 0.0081 | 0.468 ± 0.0077 | 0.332 ± 0.035 | 0.525 ± 0.0063 | 0.289 ± 0.0049 | 0.337 ± 0.022 | 0.486 ± 0.0031 | 0.45 ± 0.063 |
| LCIYNFGWWFCV | 0.494 ± 0.011 | 0.637 ± 0.044 | 0.561 ± 0.036 | 0.6389 ± 0.0054 | 0.121 ± 0.015 | 0.134 ± 0.0087 | 0.128 ± 0.014 | 0.183 ± 0.056 |
